Experimental data from a protein production outcome set (Wang et al. 2014).

Test: label from the status in PepcDB records

Sequence | protein production
MSGTLLAFDFGTKSIGVAVGQRITGTARPLPAIKAQDGTPDWNIIERLLKEWQPDEIIVGLPLNMDGTEQPLTARARKFANRIHGRFGVEVKLHDERLSTVEARSGLFEQGGYRALNKGKVDSASAVIILESYFEQGY | not failed
VPYAVEGRNYQGDLYLPCERIRAGLVLLPGAAEEGKDDPRLQAFAETLARARFAVLVPDLGGFRSLRAGSRDIGETADAILWLSSRPGLSPGGKCGVAALSYAGGPALLAALEPRAGQRVRFLVTVGGYYDLRNVLTFFTTGWYRDGDRWRRGTPNNYGKWVFVLANTDRIKNVRDRTALEKLARRKMDNPAARTDDLVRGLGPEGKSLYDFFANTDPRQVPALVERLPTPIRRDLAALDPSRRDLRGLTARLIIIHGRDDDIIPAAESEALARAVPRDRRGLFVLDGLMHVELKPKLTDAFRLWRAVSAILRER | failed
MKQIIDIENWERKENFNFFRHFQNPQLSITSEVECGGARQRAKAAGQSFFLHYLYAVLRAANEIPEFRYRIDPDGRVVLYDTIDMLSPIKIKENGKFFTTRFPYHNDFDTFYQEARLIIDAIPEDGDPYAAENEEVADGDYGLILLSATPDLYFTSITGTQEKRSGNNYPLLNAGKAIIREGRLVMPIAMTIHHGFIDGHHLSLFYKKVEDFLK | not failed
MIGELVKDKILIKNIEDARLIYKMGYYGKPIGISKPKSAEEINSELILSLIEGVYLVKKGKLEIVSNGERLDFERLYQIGVTQIPRFRILYSVYEDLREKGYVVRSGIKYGADFAVYTIGPGIEHAPYLVIALDENSQISSNEILGFGRVSHSTRKELILGIVNLTNGKIRYIMFKWLKM | not failed
MPDNEVDLLFAQLSPEDLIEWSDYLPESFTDRALAQMGERQRQRFELYDQYSENEIGRYTDHQMLVLSDKATVAQAQRFFRRIELDCNDNLFIVDEADKYLGTVRRYDIFKHEPHEPLISLLSEDSRALTANTTLLDAAEAIEHSREIELPVIDDAGELIGRVTLRAATALVREHYEAQLMATAGMDESDDLFAPILKGAQRRAV | not failed
MGRLGWVDPESFMQRNHELMDAYSAGKLAMEEFMAFSLEPMAGRTPEEVDHLVGPWVEDVIEPIIYSDACKCIAQHRAKGDRILVISASGVHLVKPIAERLGIDEVLGIELDVQHGVYSGATVGVLTYREGKITRLMEWLDAEGENLEGASFYSDSRNDLPLLLKVDHPNVVNPDPVLLEHAQQAGWPVHTWV | failed
MSVPSPVNESLLSQRLAALGAARSWAPNVLPELEHFIRTADDYDLLRVNPIQYGGAVRMSEADAIELFVHAAKVGLFDMDWLLICAYCPQVAGSFRELDQVHPRFQCAFCNAINDVALDDYIQVAFTVSSGVRDIIFRHPERLSVEDFYLRYNFSKGFIAPHGMTHQQLVAALSRGFADIEAHEHRSFDFEVTAGRFEVLDLSHKLLLVFFADGEPAEPQETLVQLESGRFHVPDRPTAPKDMVLGDGQFSFRQTADLSPGKHTIRIENRTDDRGRFWFVQYPPGFAPHLVEYEPFLSGKRLLLTPSFRELYKAQLVDEGESIKVSDMTFLFTDLKKSTPLYESVGDVNAYFLVRQHFEILNRIIRERSGTIIKTIGDAVMAGFERPQDAVCAAIEMIEELSRFNQTASRPLGLKVGVHRGRAIAVNLNDRIDYFGQDVNIAARVQGLADVDEVCISATAMEAPGVGDIVNSRSVSRNYENLKGIGQKMEVHRMTIPPTQT | failed
MTSSPELARAVAATLARHVTDVVICPGSRNSPLSLELIARDDIRVHTRIDERSAAFLALGLARSSKRHVAVVTTSGTAVANCAPAMIEAAYSHTPLIMVSADRPERLHGTGANQTIEQRGIFNVVDTDHVVDITDLNSISFARNVIHINVALDVPLVDVLPEVGDPVERVREVIEV | failed
MFQKIAKECLAGFTVAIVALPLAIAFGIAATGTSEGALVGLYGAIFAGLFAALFGGTPGQVTGPTGPITVIATGVIATHGLEASFIVFMMAGLFQILFGVCKLGSYVRYIPYPVVSGFMNGIALIIILGEMKHVQNSFLLVVLTIIVMIVSGKWIKAIPSSLVALVGVTAMLPLFSSALEGLTVKLPVIGNLSLNKVIEKIGTIPEAMPTLHIPSLSGTGIAELILPALSIALLGSIDSLLTSVVMDNVTGTRHKSNKELVGQGIGNVMSGLFGGLAGAGATVRSIVNIRSGGKTALSASMHSVILFIFIMGLGSVVQYIPLAVLSGILILTGIGMFDWESMKKMHVAPKGDVVVMLVTMIVTVKFDLMIAVAFGIILAFIIYMVKCKERKASIVKEKEAIYKIKGPLSFLTVDRVFYALQDVKSPVVLRMKDTRYMDVSGAMALLNFIEQSGKSGLSVTLEQVPAHIEKILVTMASSEQKDKLLFTEADVMQGNALV | failed
MNYFATVARGLETLAAQELEQLGAHSVEPGFCGVAFEGDRTLLYRVNLWARLPFRILVDIHEFPCLDAKDLYRGIQTIDWQNYLTPDMTLAVNVTGKNAHLNHSHFTSLQVKNAIVDQQQEKLGERSNVELHEPDVRVNVHIERDFCTVKLDSSGNSLHRRGYRPAVGSAPLKESLAAALIQLSGWKQDQMFYDPLCGSGTLPLEASLKALNIAPGLFRESFGFENWLDFDLVLLEKLLQEAKDSQLDTLPAPIWGSDHDENVIEQAINNAQNCGVDNHVWFSQMELADVVAPADSGILLCNPPYGERLGRDSDLGAFYKLLGDVLKQRFKGWTAFVLSGNKELSQSIGLKSSKRIAVYNGALPCQLMKYELY | failed
MVRKSIDRSTAAEITRGIGNVFADLGMPDAEERQTKLRLAYALNAVIDRARLSQAAAAARLGINQPKVSALRNYKLEGFSVERLMTLLNALDQDVEIVIRKKPRSRAAARISVVAA | not failed
VQVGNCLQVMWLADRHSDPELYTAAKHCAKTHLAQLQNTEEFLHLPHRLLTDIISDGVPCSQNPTEAIEAWINFNKEEREAFAESLRTSLKEIGENVH | not failed
MASEWNVAAERHSALHYLYRLGDAVLIAVCGIAMGALYFHDGIRSAAPVNGFLTMLCALGALLIFPAFGIYESWRGRSRAVLGLRIAAAWTLVFISGLLGAFLIHQIGAVSRVWSMGWFIGTGVMLALSRVVMFRMLANVRQQGINAKRVLIFGYGPLGREMYDRVQHFRDAGYRVVGVYDEESDAIPYDVTPLRQIEEVSGFVRDHGVREIWLTLPMAACRDLSGVVRQFRNEMIDIRWVPDVSSVELLGHRFSEFMGLPVIDLNSPPVSGITGVVKASFDRVFSLGVLVCLSPLLLLIAAMVKLSSPGPVLFRQQRLGIDGQPFNVYKFRTMRQHQDGGGVTQAVRGDPRVTRVGAFLRRTSLDELPQFINVLRGEMSVVGPRPHAMEHNELYKELIDRYMLRHRVKPGITGWAQINGLRGQTDTVEKMRKRIEFDIYYIQHWSFQLDLRIILRTALHGWTGTTAY | failed
MSNYEKVYIGTYTNGESRGIYSFNIISDSRKTTAPILSCEIENPTYLTFNMNNKTAYSVIKSGNLGGAASFYVDDRNNHLELLNCKFGYENPPERFSGKQPCYVSLDKTNSYLFSVNYHTSRVDVFPIRNDGSIDTVSSFVIHEGFGPNKERQETSHVHCAVTTPLNDFLCVVDLGTDKIVLYRFDDGILCRFNEFKLKPGCGPRHIIFHPNGKIAYIATELSSEVIVLKYSPLDGSFEELQYVSCLPTDYTGKNGSAAIHISRNSNYLYVSNRGHNSISCFHVDNSTGLLTLNSNTSTYGLSPRDFDLSSSGNLLIAANQDSSNLTIFSVDQVSGNLSKITSDIYVPNPVCVKFYHDKLEHHHHHH | failed
MPAKPIDLGPMHFEKKEDAVAYLHKMLHRYDLGDKVSDDDAIILRAALAHHRDAEVKVGCGITYFSVRTADFGTRCFWLNRNDGTTEKFSHKTCIYSTLEHHHHHH | not failed
MHVYESDVSWIDDRRTEVSVGDHRIEVDSPPEFGGPEGQLYPETLFPSVLASCLLTTFLEFKDRMGINLKSWNSHVTAELGPSPEKGFKFHRIKIHVKIGVNDEDKEKIPRAMQLAEKYCFISRAIRNNVEEIVDYEFV | not failed
MDFVEFWSQLIRNVRWRRACVLALIVLTLYLASSMMSIILLTFIFTFLVTRLVRAVRRWVKIPPTIIVLVVYALVILGIYFAVSIYLPQLIKQTFLTFESVYRFYQNPSHDTNQVLTWVTSYFQESDILKQLKGGISVVFQYITNIGNMGLTFFLSFILSFFFTIEDHQMRVFTKRFLTSTFGWFFQDVHFFAKKFVNSFGVVLEAQFLIAIVNTVITVTFMAILKMPQLISLGLMIFILSLIPVAGVIISVVPLSLIAYSVGGLRYVVYMLLMILVVHALEAYVLNPKFMSSRTELPIFYTFVVLLVSERLFGVWGLIVGVPIFNFILDIIGVKPVHRPRPNINLKKTITFHPDSENKR | failed
